We go through one molecule from patent publication US20210284711A1 (KAHR MEDICAL, published 2021).

For the experiment, the target named is T1, human PDL1 (overexpressed on DLD1-PDL1 cells) (human, UniProt Q9NZQ7 19-290).
T1 construct: whole, on cells; also called B7H1; CD274
The experiment in a line: flow cytometry on DLD1-PDL1 cells, GMFI plotted against DSP105 conc. [ug/ml] (two-fold steps). The source says:
Following, GMFI values were used to create a binding curve graph with a GraphPad Prism software (FIG. 10C). Taken together, both sides of the His-tagged DSP105_V17 (SEQ ID NO: 97), fusion protein, bind their relevant counterparts overexpressed on the surface of cells.

T1 sequence (Q9NZQ7 19-290): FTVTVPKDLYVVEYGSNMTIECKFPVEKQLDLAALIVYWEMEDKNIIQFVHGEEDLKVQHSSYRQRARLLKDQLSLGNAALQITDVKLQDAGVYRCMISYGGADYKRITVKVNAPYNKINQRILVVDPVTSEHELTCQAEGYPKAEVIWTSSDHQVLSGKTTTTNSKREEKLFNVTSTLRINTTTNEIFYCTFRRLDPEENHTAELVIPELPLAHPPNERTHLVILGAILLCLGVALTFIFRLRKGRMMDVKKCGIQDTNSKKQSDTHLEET

B1: N-terminal His-tagged DSP105_V17 (PD1-4-1BBL variant fusion protein) (other)
chain: HHHHHHDSPDRPWNPPTFSPALLVVTEGDNATFTCSFSNTSESFVLNWYRMSPSNQTDKLAAFPEDRSQPGQDSRFRVTQLPNGRDFHMSVVRARRNDSGTYLCGAISLAPKAQIKESLRAELRVTERRAEVPTAHPSPSPRPAGQGSAASPRLREGPELSPDDPAGLLDLRQGMFAQLVAQNVLLIDGPLSWYSDPGLAGVSLTGGLSYKEDTKELVVAKAGVYYVFFQLELRRVVAGEGSGSVSLALHLQPLRSAAGAAALALTVDLPPASSEARNSAFGFQGRLLHLSAGQRLGVHLHTEARARHAWQLTQGATVLGLFRVTPEIPAGLPSPRSE
notes: also called N-terminal His-tagged DSP105_var17
For B1, the “EC50 (read off the curve)” value is about 0.9 µg/mL.
